These results are taken from US20040024178A1, “Bacterial signal peptidase inhibitors and uses thereof” (priority 1999, published 2004).

The target of data set [1] is T1, S. aureus SpsB signal peptidase (Staphylococcus aureus) (UniProt P0A070).
T1 sequence: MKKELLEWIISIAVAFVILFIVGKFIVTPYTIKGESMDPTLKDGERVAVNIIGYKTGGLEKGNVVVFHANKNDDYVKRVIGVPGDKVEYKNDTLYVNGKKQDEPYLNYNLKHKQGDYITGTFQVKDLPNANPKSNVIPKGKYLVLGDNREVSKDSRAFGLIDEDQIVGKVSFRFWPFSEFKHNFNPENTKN
The data set can be described thus: cell-based or functional assay.

Data set [2] concerns the target T2, Decanoyl-Leu-Thr-Pro-Lys(Bio-X)-Ala-Lys-Ala-Ala-Ser-Lys-Lys(Flu)-Asp-Asp-OH.
T2 chain: LTPKAKAASKKDD

Data set [3] concerns the target T3, Decanoyl-Lys(Flu)-Thr-Pro-Thr-Ala-Lys-Ala-Ala-Ser-Lys-Lys(TAMRA)-Asp-Asp-OH, prep-hplc peak 23C.
T3 chain: KTPTAKAASKKDD

The target of data set [4] is T4, Decanoyl-Lys(TAMRA)-Thr-Pro-Thr-Ala-Lys-Ala-Ala-Ser-Lys-Lys(Flu)-Asp-Asp-OH, prep-hplc peak 24D.
T4 chain: KTPTAKAASKKDD

Data set [5] concerns the target T5, Decanoyl-Leu-Thr-Pro-Lys(Bio-X)-Ala-Lys-Ala-Ala-Ser-Lys-Ile-Asp-Asp-Gly-Lys(Flu)-Asp-OH.
T5 chain: LTPKAKAASKIDDGKD

The target of data set [6] is T6, Decanoyl-Lys(TAMRA)-Thr-Pro-Thr-Ala-Lys-Ala-Ala-Ser-Lys-Lys(Flu)-Asp-Asp-OH, prep-hplc peak 24C.
T6 chain: KTPTAKAASKKDD

Data set [7] has as its target T7, Decanoyl-Lys(Bio-X)-Thr-Pro-Thr-Ala-Lys-Ala-Ala-Ser-Lys-Ile-Asp-Asp-Gly-Lys(Flu)-Asp-OH.
T7 chain: KTPTAKAASKIDDGKD

Data set [8] concerns the target T8, Decanoyl-Lys(Flu)-Thr-Pro-Thr-Ala-Lys-Ala-Ala-Ser-Lys-Lys(Bio-X)-Asp-Asp-OH.
T8 chain: KTPTAKAASKKDD

Consider “Decanoyl-Lys(TAMRA)-Thr-Pro-Thr-Ala-Lys-Ala-Ala-Ser-Lys-Lys(Flu)-Asp-Asp-OH, prep-hplc peak 24D (peptide)”, for which, in data set [1], the signal change (fluorescence quench assay) was > 10 fold.

Take “Decanoyl-Lys(Bio-X)-Thr-Pro-Thr-Ala-Lys-Ala-Ala-Ser-Lys-Ile-Asp-Asp-Gly-Lys(Flu)-Asp-OH (peptide)”: the signal change (fluorescence polarisation assay, developed with avidin) in data set [1] is > 150 mP.

As for “Decanoyl-Leu-Thr-Pro-Lys(Bio-X)-Ala-Lys-Ala-Ala-Ser-Lys-Lys(Flu)-Asp-Asp-OH (peptide)”, the signal change (fluorescence polarisation assay, developed with avidin) in data set [1] is > 150 mP.

On to “Decanoyl-Lys(Flu)-Thr-Pro-Thr-Ala-Lys-Ala-Ala-Ser-Lys-Lys(Bio-X)-Asp-Asp-OH (peptide)”, for which the signal change (fluorescence polarisation assay, developed with avidin) in data set [1] was > 150 mP.

On to “Decanoyl-Leu-Thr-Pro-Lys(Bio-X)-Ala-Lys-Ala-Ala-Ser-Lys-Ile-Asp-Asp-Gly-Lys(Flu)-Asp-OH (peptide)”, for which, in data set [1], the signal change (fluorescence polarisation assay, developed with avidin) was > 150 mP.

With “Decanoyl-Lys(TAMRA)-Thr-Pro-Thr-Ala-Lys-Ala-Ala-Ser-Lys-Lys(Flu)-Asp-Asp-OH, prep-hplc peak 24C (peptide)”, the signal change (fluorescence quench assay) in data set [1] is > 10 fold.

B1: S. aureus SpsB signal peptidase (protein)
chain: MKKELLEWIISIAVAFVILFIVGKFIVTPYTIKGESMDPTLKDGERVAVNIIGYKTGGLEKGNVVVFHANKNDDYVKRVIGVPGDKVEYKNDTLYVNGKKQDEPYLNYNLKHKQGDYITGTFQVKDLPNANPKSNVIPKGKYLVLGDNREVSKDSRAFGLIDEDQIVGKVSFRFWPFSEFKHNFNPENTKN
Regarding B1, the “catalytic efficiency kcat/Km (fluorescence polarisation assay)” value in data set [2], in data set [5], in data set [7] and in data set [8] was “kcat/Km >/=8000 M^-1 sec^-1” in each case. Also, the “kcat/Km (fluorescence correlation spectroscopy assay)” value in data set [2] is reported as “kcat/Km=6800 M^-1s^-1”. Also, the “catalytic efficiency kcat/Km (fluorescence quench assay)” value in data set [3], in data set [4] and in data set [6] was “kcat/Km >/=5000 M^-1 sec^-1” each time.
